Results as given in PMC12888920, “MMP-9 regulates disulphide isomerase activity of TGM2 to enhance fusion glycoprotein-mediated syncytium formation of respiratory syncytial virus” (Protein & Cell, 2025).

Legend:
[1] = molecular target: purified human MMP-9 (human) (UniProt P14780); assay: BLI; ForteBio Octet; who was immobilised and buffer not told in the text shown; three biological replicates
[2] = molecular target: DS-Cav1 (RSV F prefusion conformation) (respiratory syncytial virus (strain not stated)) (UniProt P03420); assay: as above

Sequence of purified human MMP-9 (human) (P14780 20-707): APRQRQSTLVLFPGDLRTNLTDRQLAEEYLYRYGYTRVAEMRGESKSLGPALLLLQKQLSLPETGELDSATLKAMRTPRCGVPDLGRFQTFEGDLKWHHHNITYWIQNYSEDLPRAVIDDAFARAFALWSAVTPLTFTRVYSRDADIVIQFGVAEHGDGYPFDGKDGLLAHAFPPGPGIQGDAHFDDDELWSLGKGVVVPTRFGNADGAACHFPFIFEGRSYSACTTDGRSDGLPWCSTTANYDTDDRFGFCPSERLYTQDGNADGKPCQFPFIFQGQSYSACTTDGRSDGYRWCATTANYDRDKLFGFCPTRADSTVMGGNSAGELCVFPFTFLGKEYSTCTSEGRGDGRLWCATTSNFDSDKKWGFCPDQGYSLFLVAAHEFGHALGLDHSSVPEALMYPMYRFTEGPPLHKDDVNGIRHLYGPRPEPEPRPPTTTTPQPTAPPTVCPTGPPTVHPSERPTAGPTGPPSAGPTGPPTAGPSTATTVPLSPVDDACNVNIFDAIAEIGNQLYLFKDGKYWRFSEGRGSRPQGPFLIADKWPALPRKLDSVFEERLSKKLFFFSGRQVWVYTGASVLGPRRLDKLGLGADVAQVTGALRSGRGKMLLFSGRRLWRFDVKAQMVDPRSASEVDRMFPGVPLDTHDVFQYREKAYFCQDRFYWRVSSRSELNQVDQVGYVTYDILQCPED
Sequence of purified human TGM2 (transglutaminase 2) (P21980 whole entry): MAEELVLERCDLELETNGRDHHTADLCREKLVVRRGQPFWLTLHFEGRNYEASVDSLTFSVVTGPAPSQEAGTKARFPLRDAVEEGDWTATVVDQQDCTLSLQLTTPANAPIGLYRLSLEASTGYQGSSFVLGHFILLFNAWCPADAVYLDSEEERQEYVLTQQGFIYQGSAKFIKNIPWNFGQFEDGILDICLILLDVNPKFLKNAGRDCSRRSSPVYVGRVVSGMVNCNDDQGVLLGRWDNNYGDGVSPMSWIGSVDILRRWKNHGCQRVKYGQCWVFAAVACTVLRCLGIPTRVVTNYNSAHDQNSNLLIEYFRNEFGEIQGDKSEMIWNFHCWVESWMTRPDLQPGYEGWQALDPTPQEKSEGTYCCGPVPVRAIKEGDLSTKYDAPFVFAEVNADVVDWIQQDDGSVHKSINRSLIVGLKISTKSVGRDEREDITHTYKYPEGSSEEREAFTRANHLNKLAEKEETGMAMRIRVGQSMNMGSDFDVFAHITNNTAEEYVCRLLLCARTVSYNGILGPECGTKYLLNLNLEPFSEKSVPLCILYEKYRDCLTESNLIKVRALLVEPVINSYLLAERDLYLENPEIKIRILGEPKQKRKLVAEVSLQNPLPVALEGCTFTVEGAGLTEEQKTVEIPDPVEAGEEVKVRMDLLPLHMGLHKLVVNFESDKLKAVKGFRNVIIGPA

Row | Substance | Kd [1] | Kd [2]
1 | DS-Cav1 (RSV F prefusion conformation) (from UniProt P03420 26-574) (natural protein) | 0.146 µM | 
2 | purified human TGM2 (transglutaminase 2) (from UniProt P21980 1-687) (enzyme) |  | 6.31 µM
